Reference: patent US20230241072A1 (ALMAC DISCOVERY, published 2023)

B1: hFc - P3A1 (Fc fusion)
chain: GGGGSGGGGSGGGGSTRVDQTPRTATKETGESLTINCVLTDTSYGLYSTSWFRKNPGTTDWERMSIGGRYVESVNKGAKSFSLRIKDLTVADSATYYCKAREARHPWLRQWYDGAGTVLTVN
notes: VNAR at the C-terminus of the Fc, by the printed name; not shown: human IgG1 Fc domain
B2: B1V15 hFc (Fc fusion)
chain: ASVTQSPRSASKETGESLTITCRVTGANYGLAATYWYRKNPGSSNQERISISGRYSESVNKRTMSFSLRISSLTVEDSATYYCKAYPWGAGAPWLVQWYDGQGTKLEVKGGGGSGGGGSGGGGS
notes: Humanised B1 variant fused to hFc; not shown: human IgG1 Fc domain
B3: P3A1 hFc(442) (Fc fusion)
chain: TRVDQTPRTATKETGESLTINCVLTDTSYGLYSTSWFRKNPGTTDWERMSIGGRYVESVNKGAKSFSLRIKDLTVADSATYYCKAREARHPWLRQWYDGAGTVLTVNGGGGSGGGGSGGGGS
notes: hIgG1 Fc with S442C (EU); also called P3A1hFc(S442C); not shown: human IgG1 Fc domain
B4: P3A1 hFc (Fc fusion)
chain: TRVDQTPRTATKETGESLTINCVLTDTSYGLYSTSWFRKNPGTTDWERMSIGGRYVESVNKGAKSFSLRIKDLTVADSATYYCKAREARHPWLRQWYDGAGTVLTVNGGGGSGGGGSGGGGS
notes: VNAR fused to engineered hIgG1 Fc via [G4S]3; also called P3A1hFc(S239C); not shown: human IgG1 Fc domain
B5: 2V hFc (Fc fusion)
chain: TRVDQTPRTATKETGESLTINCVLTDTSYGLYSTSWFRKNPGTTDWERMSIGGRYVESVNKGAKSFSLRIKDLTVADSATYYCKAQSLAISTRSYWYDGAGTVLTVNGGGGSGGGGSGGGGS
notes: Control VNAR from a naive library, no known target; not shown: human IgG1 Fc domain

Assays:
[1] = target: T1, human ROR1-hFc fusion protein (extracellular domain) (human, UniProt Q01973 30-406); assay: SPR (Pioneer) or BLI (Octet K2); ROR1-hFc extracellular domain amine-coupled
T1 construct: extracellular domain; Immobilised by amine coupling on COOH2 chips or AR2G sensors; also called hROR1; not shown: human Fc (hFc)
Procedure: (§1) VNARs were genetically fused to engineered hIgG1 Fc domains via standard [G₄S]₃ that contained a cysteine substitution in the hIgG1 Fc sequence, S239C (EU numbering). The VNAR Fc fusion proteins were expressed as secreted protein in CHO K1 cells and purified from the media using MabSelect™ SuRe™ (Evitria, Switzerland). Purified proteins were analysed by SEC (AdvanceBio, Agilent), SDS PAGE and mass spectrometry to confirm sequence and protein integrity. Binding kinetics were determined using a Pioneer Surface Plasmon Resonance (SPR) instrument (SensiQ/Pall ForteBio), or the Biolayer Interferometry (BLI) Octet K2 system (ForteBio). ROR1-hFc or ROR2-hFc fusion proteins (extracelluar domains) were immobilised in sodium acetate pH5 buffer to COOH₂ chips or AR2G sensors using amine coupling. VNARs and VNAR-Fc molecules were tested at various concentrations and the Ka (M⁻¹ s⁻¹), Kd (s⁻¹) and KD (nM) values were determined using QDat software (SensiQ/Pall ForteBio) or Octet Data Analysis High Throughput software (ForteBio) for Biolayer Interferometry.

[2] = target: T2, human ROR2-hFc fusion protein (extracellular domain) (human, UniProt Q01974 34-403); assay: SPR (Pioneer) or BLI (Octet K2); ROR2-hFc extracellular domain amine-coupled
T2 construct: extracellular domain; Immobilised by amine coupling; also called hROR2; not shown: human Fc (hFc)
Procedure: as §1

Binder	koff [1] [s⁻¹]	binding result [2]	Kd [1] [pM]	kon [1] [M⁻¹ s⁻¹]	binding result [1]
B1	0.000776	no binding	–	–	–
B2	0.00013	no binding	726	179000	–
B3	0.0002	no binding	741	270000	–
B4	0.000564	no binding	–	–	–
B5	–	no binding	–	–	no binding
